Patent US7807396B2, “Insulin degrading enzyme assays for treatment of alzheimer's disease” (University of Kentucky Research Foundation, priority 2000, dated 2010)

Molecular target: T1, β-endorphin (Homo sapiens, UniProt P01189)
T1 construct: Human β-endorphin1-31; purchased National Institute on Drug Abuse drug supply system
T1 sequence (P01189 237-267): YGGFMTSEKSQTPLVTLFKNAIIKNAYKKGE
Assay: Insulysin activity determination, disappearance of β-endorphin by HPLC
Assay type: biochemical
Conditions: 30 μM β-endorphin, 37° C.
Protocol: Materials. […] Solutions were prepared by dissolving the peptide in dimethylsulfoxide (DMSO) to give a stock concentration of 200 μM. The peptide stock was lyophilized and stored at −80° C. until use. The aggregation state of Aβ peptide stock solutions was checked by electron microscopy (Ray et al. (2000) Brain Res 853:344-351) and found to be predominantly, if not exclusively, monomeric. For the in vitro reactions with insulysin, a final concentration of 25 μM Aβ1-40 was obtained after bringing the lyophilized peptide into solution with double distilled water. […] Human β-endorphin1-31, obtained from the National Institute on Drug Abuse drug supply system, was dissolved in water to give a stock solution of 300 μM. Trifluoroacetic acid (Sigma Biochemicals, St. Louis, Mo.) was diluted into water to produce a 5% working solution.
Insulysin activity was assayed by measuring the disappearance of β-endorphin by isocratic reverse phase HPLC (Safavi et al. (1996) Biochemistry 1996 35:14318-14325). A 100 μl reaction mixture containing 40 mM potassium phosphate buffer, pH 7.2, 30 μM β-endorphin, and enzyme was incubated for 15 minutes at 37° C. […] The β-endorphin peak was detected by absorbance at 214 nm using a Waters 484 detector. The reaction was quantitated by measuring the decrease in the β-endorphin peak area.

B1: enzyme purified from a thymoma cell line, EL-4: insulysin enzyme purified from a thymoma cell line, EL-4, used for comparison of specific activity (protein, UniProt Q9JHR7 1-1019, looked up)
Insulin-degrading enzyme: MRNGLVWLLHPALPGTLRSILGARPPPAKRLCGFPKQTYSTMSNPAIQRIEDQIVKSPEDKREYRGLELANGIKVLLISDPTTDKSSAALDVHIGSLSDPPNIPGLSHFCEHMLFLGTKKYPKENEYSQFLSEHAGSSNAFTSGEHTNYYFDVSHEHLEGALDRFAQFFLCPLLDASCKDREVNAVDSEHEKNVMNDAWRLFQLEKATGNPKHPFSKFGTGNKYTLETRPNQEGIDVREELLKFHSTYYSSNLMAICVLGRESLDDLTNLVVKLFSEVENKNVPLPEFPEHPFQEEHLRQLYKIVPIKDIRNLYVTFPIPDLQQYYKSNPGYYLGHLIGHEGPGSLLSELKSKGWVNTLVGGQKEGARGFMFFIINVDLTEEGLLHVEDIILHMFQYIQKLRAEGPQEWVFQECKDLNAVAFRFKDKERPRGYTSKIAGKLHYYPLNGVLTAEYLLEEFRPDLIDMVLDKLRPENVRVAIVSKSFEGKTDRTEQWYGTQYKQEAIPEDVIQKWQNADLNGKFKLPTKNEFIPTNFEILSLEKDATPYPALIKDTAMSKLWFKQDDKFFLPKACLNFEFFSPFAYVDPLHCNMAYLYLELLKDSLNEYAYAAELAGLSYDLQNTIYGMYLSVKRYNDKQPILLKKITEKMATFEIDKKRFEIIKEAYMRSLNNFRAEQPHQHAMYYLRLLMTEVAWTKDELKEALDDVTLPRLKAFIPQLLSRLHIEALLHGNITKQAALGVMQMVEDTLIEHAHTKPLLPSQLVRYREVQLPDRGWFVYQQRNEVHNNCGIEIYYQTDMQSTSENMFLELFCQIISEPCFNTLRTKEQLGYIVFSGPRRANGIQGLRFIIQSEKPPHYLESRVEAFLITMEKAIEDMTEEAFQKHIQALAIRRLDKPKKLSAECAKYWGEIISQQYNYDRDNIEVAYLKTLTKDDIIRFYQEMLAVDAPRRHKVSVHVLAREMDSCPVVGEFPSQNDINLSEAPPLPQPEVIHNMTEFKRGLPLFPLVKPHINFMAAKL
- specific activity: 3.3 μmols/min/mg
